PMC12393466 (2025)
No end group written: not given here.

T1: P01.1 peptide
T1 chain: KKIVTILKKLVK

T2: P01.3 peptide
T2 chain: KKIVEILKKLVK


Experiments:
P01.1 peptide = target: T1, P01.1 peptide; test: concentration-dependent circular dichroism (222 nm, 40% TFE)
P01.3 peptide = target: T2, P01.3 peptide; test: as above

Row | Kd (P01.1 peptide) | Kd (P01.3 peptide) | Binder
1 | 769 µM |  | KKIVTILKKLVK-NH2 [P01.1 peptide]
2 |  | 51.5 µM | Ac-KKIVEILKKLVK-NH2 [P01.3 peptide]
